According to paper PMC3571656:

Target: CAX^CK31 (Ca2+/H+ antiporter of Caulobacter sp. K31), purified, lacking tags (Caulobacter sp. K31)
Assay: SEC-MALS

stoichiometry N: 2
Substance: CAX^CK31 (Ca2+/H+ antiporter of Caulobacter sp. K31), purified, lacking tags (natural protein)
